Data reported in US20030229005A1 (BIOZYME, published 2003).
*1 amine or outer side, *2 acyl side, *3 side chain or, on linkers, in order; H or OH if unused. Primed or numbered codes have the meaning given here. [ ]: non-standard residue; d: D form. The star is where a group is joined. Dabcyl′ = CN(C)c1ccc(/N=N/c2ccc(C(=O)*)cc2)cc1; Dnp = O=[N+]([O-])c1ccc(*)c([N+](=O)[O-])c1; C(Me) = CSC[C@H](N[*:1])C(=O)[*:2]; fluorescein = fluorescein label

T1: human Gelatinase-A (human, UniProt P08253 110-660, limits assumed)
T1 sequence (looked up): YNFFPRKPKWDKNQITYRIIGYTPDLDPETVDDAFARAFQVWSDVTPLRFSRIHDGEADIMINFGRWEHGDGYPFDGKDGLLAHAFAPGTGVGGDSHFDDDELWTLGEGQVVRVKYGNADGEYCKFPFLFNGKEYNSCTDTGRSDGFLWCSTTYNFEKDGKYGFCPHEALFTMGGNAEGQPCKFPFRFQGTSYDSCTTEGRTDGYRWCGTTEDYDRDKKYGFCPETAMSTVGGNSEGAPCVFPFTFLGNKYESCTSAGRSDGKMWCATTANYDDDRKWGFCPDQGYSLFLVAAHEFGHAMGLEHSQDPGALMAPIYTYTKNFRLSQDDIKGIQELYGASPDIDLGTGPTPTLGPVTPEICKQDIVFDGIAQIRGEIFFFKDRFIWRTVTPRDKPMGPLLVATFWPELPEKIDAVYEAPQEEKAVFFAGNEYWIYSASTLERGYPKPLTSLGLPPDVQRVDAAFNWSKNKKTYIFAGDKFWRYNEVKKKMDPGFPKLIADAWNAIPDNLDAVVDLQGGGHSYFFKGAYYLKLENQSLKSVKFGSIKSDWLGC

T2: collagenase 1 (UniProt P03956 100-469, limits assumed)
T2 sequence (looked up): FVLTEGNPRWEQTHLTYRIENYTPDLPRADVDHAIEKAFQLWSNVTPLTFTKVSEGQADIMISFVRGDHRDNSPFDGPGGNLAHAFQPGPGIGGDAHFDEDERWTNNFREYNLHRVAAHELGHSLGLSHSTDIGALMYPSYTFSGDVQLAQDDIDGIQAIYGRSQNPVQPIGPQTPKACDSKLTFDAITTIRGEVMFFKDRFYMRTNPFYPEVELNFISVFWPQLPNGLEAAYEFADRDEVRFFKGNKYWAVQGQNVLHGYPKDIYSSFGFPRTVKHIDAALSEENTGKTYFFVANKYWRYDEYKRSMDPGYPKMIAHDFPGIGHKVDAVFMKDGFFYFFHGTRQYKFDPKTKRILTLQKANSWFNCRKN

B1: Dnp-GPKGITS-NH2 (peptide)
peptide: Dnp-GPKGITS-NH2
SMILES: CC[C@H](C)[C@H](NC(=O)CNC(=O)[C@H](CCCCN)NC(=O)[C@@H]1CCCN1C(=O)CNc1ccc([N+](=O)[O-])cc1[N+](=O)[O-])C(=O)N[C@H](C(=O)N[C@@H](CO)C(N)=O)[C@@H](C)O
B2: Dnp-GPVNLHG-NH2 (peptide)
peptide: Dnp-GPVNLHG-NH2
SMILES: CC(C)C[C@H](NC(=O)[C@H](CC(N)=O)NC(=O)[C@@H](NC(=O)[C@@H]1CCCN1C(=O)CNc1ccc([N+](=O)[O-])cc1[N+](=O)[O-])C(C)C)C(=O)N[C@@H](Cc1c[nH]cn1)C(=O)NCC(N)=O
B3: Dnp-GPAPLHVC(Me)-NH2 (peptide)
peptide: Dnp-GPAPLHV[C(Me)]-NH2
SMILES: CSC[C@H](NC(=O)[C@@H](NC(=O)[C@H](Cc1c[nH]cn1)NC(=O)[C@H](CC(C)C)NC(=O)[C@@H]1CCCN1C(=O)[C@H](C)NC(=O)[C@@H]1CCCN1C(=O)CNc1ccc([N+](=O)[O-])cc1[N+](=O)[O-])C(C)C)C(N)=O
B4: Dnp-GPLGLHVC(Me)-NH2 (peptide)
peptide: Dnp-GPLGLHV[C(Me)]-NH2
SMILES: CSC[C@H](NC(=O)[C@@H](NC(=O)[C@H](Cc1c[nH]cn1)NC(=O)[C@H](CC(C)C)NC(=O)CNC(=O)[C@H](CC(C)C)NC(=O)[C@@H]1CCCN1C(=O)CNc1ccc([N+](=O)[O-])cc1[N+](=O)[O-])C(C)C)C(N)=O
B5: Dnp-GPLSFQG-NH2 (peptide)
peptide: Dnp-GPLSFQG-NH2
SMILES: CC(C)C[C@H](NC(=O)[C@@H]1CCCN1C(=O)CNc1ccc([N+](=O)[O-])cc1[N+](=O)[O-])C(=O)N[C@@H](CO)C(=O)N[C@@H](Cc1ccccc1)C(=O)N[C@@H](CCC(N)=O)C(=O)NCC(N)=O
B6: Dnp-GPSGIHV-NH2 (peptide)
peptide: Dnp-GPSGIHV-NH2
SMILES: CC[C@H](C)[C@H](NC(=O)CNC(=O)[C@H](CO)NC(=O)[C@@H]1CCCN1C(=O)CNc1ccc([N+](=O)[O-])cc1[N+](=O)[O-])C(=O)N[C@@H](Cc1c[nH]cn1)C(=O)N[C@H](C(N)=O)C(C)C
B7: Dnp-GPLPLHGC(Me)-NH2 (peptide)
peptide: Dnp-GPLPLHG[C(Me)]-NH2
SMILES: CSC[C@H](NC(=O)CNC(=O)[C@H](Cc1c[nH]cn1)NC(=O)[C@H](CC(C)C)NC(=O)[C@@H]1CCCN1C(=O)[C@H](CC(C)C)NC(=O)[C@@H]1CCCN1C(=O)CNc1ccc([N+](=O)[O-])cc1[N+](=O)[O-])C(N)=O
B8: Dnp-GPKGMRG-NH2 (peptide)
peptide: Dnp-GPKGMRG-NH2
SMILES: CSCC[C@H](NC(=O)CNC(=O)[C@H](CCCCN)NC(=O)[C@@H]1CCCN1C(=O)CNc1ccc([N+](=O)[O-])cc1[N+](=O)[O-])C(=O)N[C@@H](CCCNC(=N)N)C(=O)NCC(N)=O
B9: Dabcyl-GPHPFRGC(Flu)-NH2 (peptide)
peptide: {Dabcyl′}-GPHPFRGC(fluorescein)-NH2
B10: Dnp-GPSGIHL-NH2 (peptide)
peptide: Dnp-GPSGIHL-NH2
SMILES: CC[C@H](C)[C@H](NC(=O)CNC(=O)[C@H](CO)NC(=O)[C@@H]1CCCN1C(=O)CNc1ccc([N+](=O)[O-])cc1[N+](=O)[O-])C(=O)N[C@@H](Cc1c[nH]cn1)C(=O)N[C@@H](CC(C)C)C(N)=O
B11: Dnp-GPYGMRA-NH2 (peptide)
peptide: Dnp-GPYGMRA-NH2
SMILES: CSCC[C@H](NC(=O)CNC(=O)[C@H](Cc1ccc(O)cc1)NC(=O)[C@@H]1CCCN1C(=O)CNc1ccc([N+](=O)[O-])cc1[N+](=O)[O-])C(=O)N[C@@H](CCCNC(=N)N)C(=O)N[C@@H](C)C(N)=O
B12: Dnp-GPLSIQD-NH2 (peptide)
peptide: Dnp-GPLSIQD-NH2
SMILES: CC[C@H](C)[C@H](NC(=O)[C@H](CO)NC(=O)[C@H](CC(C)C)NC(=O)[C@@H]1CCCN1C(=O)CNc1ccc([N+](=O)[O-])cc1[N+](=O)[O-])C(=O)N[C@@H](CCC(N)=O)C(=O)N[C@@H](CC(=O)O)C(N)=O
B13: Dnp-GPHPFRG-NH2 (peptide)
peptide: Dnp-GPHPFRG-NH2
SMILES: N=C(N)NCCC[C@H](NC(=O)[C@H](Cc1ccccc1)NC(=O)[C@@H]1CCCN1C(=O)[C@H](Cc1c[nH]cn1)NC(=O)[C@@H]1CCCN1C(=O)CNc1ccc([N+](=O)[O-])cc1[N+](=O)[O-])C(=O)NCC(N)=O
B14: Dnp-VTPYNMRG-NH2 (peptide)
peptide: Dnp-VTPYNMRG-NH2
SMILES: CSCC[C@H](NC(=O)[C@H](CC(N)=O)NC(=O)[C@H](Cc1ccc(O)cc1)NC(=O)[C@@H]1CCCN1C(=O)[C@@H](NC(=O)[C@@H](Nc1ccc([N+](=O)[O-])cc1[N+](=O)[O-])C(C)C)[C@@H](C)O)C(=O)N[C@@H](CCCNC(=N)N)C(=O)NCC(N)=O
B15: Dnp-GPLQFRG-NH2 (peptide)
peptide: Dnp-GPLQFRG-NH2
SMILES: CC(C)C[C@H](NC(=O)[C@@H]1CCCN1C(=O)CNc1ccc([N+](=O)[O-])cc1[N+](=O)[O-])C(=O)N[C@@H](CCC(N)=O)C(=O)N[C@@H](Cc1ccccc1)C(=O)N[C@@H](CCCNC(=N)N)C(=O)NCC(N)=O

What was measured:
Assay in all cases: cell-based or functional assay
[1] = biological target: T1, human Gelatinase-A
[2] = biological target: T3, gelatinase B (UniProt P14780 107-707, limits assumed)
[3] = biological target: T2, collagenase 1
[4] = biological target: T4, stromelysin 1 (UniProt P08254 100-477, limits assumed)
[5] = biological target: T1, human Gelatinase-A; remark: listed apart in the source
[6] = biological target: T3, gelatinase B; remark: listed apart in the source
[7] = biological target: T2, collagenase 1; remark: listed apart in the source
[8] = biological target: T4, stromelysin 1; remark: listed apart in the source

T4 sequence (P08254 100-477 limits assumed): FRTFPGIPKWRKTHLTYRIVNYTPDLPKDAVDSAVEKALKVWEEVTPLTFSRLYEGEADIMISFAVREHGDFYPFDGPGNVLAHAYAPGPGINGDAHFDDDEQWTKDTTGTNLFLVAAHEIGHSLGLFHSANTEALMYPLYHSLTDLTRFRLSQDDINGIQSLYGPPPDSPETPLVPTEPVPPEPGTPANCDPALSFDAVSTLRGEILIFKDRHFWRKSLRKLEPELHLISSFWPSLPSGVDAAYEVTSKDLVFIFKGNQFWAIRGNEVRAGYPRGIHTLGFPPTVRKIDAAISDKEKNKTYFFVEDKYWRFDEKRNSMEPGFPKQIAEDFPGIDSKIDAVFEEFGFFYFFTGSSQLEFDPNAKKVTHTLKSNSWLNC
T3 sequence (P14780 107-707 limits assumed): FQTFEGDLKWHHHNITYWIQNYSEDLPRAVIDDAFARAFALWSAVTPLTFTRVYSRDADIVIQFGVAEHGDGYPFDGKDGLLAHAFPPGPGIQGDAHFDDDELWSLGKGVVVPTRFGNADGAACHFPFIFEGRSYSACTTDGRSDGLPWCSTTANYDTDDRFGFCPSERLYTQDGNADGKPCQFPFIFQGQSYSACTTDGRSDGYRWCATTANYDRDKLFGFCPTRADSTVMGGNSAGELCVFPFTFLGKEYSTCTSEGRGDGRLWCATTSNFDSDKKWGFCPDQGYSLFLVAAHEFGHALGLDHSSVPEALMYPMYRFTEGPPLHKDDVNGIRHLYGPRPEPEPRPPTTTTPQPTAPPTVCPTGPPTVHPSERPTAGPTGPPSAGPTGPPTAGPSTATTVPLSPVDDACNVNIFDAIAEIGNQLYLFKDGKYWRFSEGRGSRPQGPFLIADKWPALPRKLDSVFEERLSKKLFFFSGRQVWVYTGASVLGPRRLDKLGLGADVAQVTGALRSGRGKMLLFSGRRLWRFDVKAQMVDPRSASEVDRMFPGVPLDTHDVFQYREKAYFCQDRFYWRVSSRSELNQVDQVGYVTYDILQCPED

Row | Binder | Selectivity v. Coll-3 [1] | Selectivity v. Coll-3 [2] | Selectivity v. Coll-3 [3] | Selectivity v. Coll-3 [4] | Selectivity v Col-3 [5] | Selectivity v Col-3 [6] | Selectivity v Col-3, + Gel [6] | Selectivity v Col-3 [7] | Selectivity v Col-3, + Gel [7] | Selectivity v Col-3 [8] | Selectivity v Col-3, + Gel [8]
1 | B1 | 6 unitless | 2 unitless | 548 unitless | 37000 unitless |  |  |  |  |  |  | 
2 | B2 | 25 unitless | 11 unitless | 459 unitless | 1260 unitless |  |  |  |  |  |  | 
3 | B3 | 12 unitless | 11 unitless | 126 unitless | 264 unitless |  |  |  |  |  |  | 
4 | B4 | 32 unitless | 26 unitless | 182 unitless | 12700 unitless |  |  |  |  |  |  | 
5 | B5 | 21 unitless | 5 unitless | 688 unitless | 191 unitless |  |  |  |  |  |  | 
6 | B6 | 10 unitless | 17 unitless | 1430 unitless | 35700 unitless |  |  |  |  |  |  | 
7 | B7 | 20 unitless | 10 unitless | 36 unitless | 986 unitless |  |  |  |  |  |  | 
8 | B8 | 7 unitless | 3 unitless | 1570 unitless | 13200 unitless |  |  |  |  |  |  | 
9 | B9 |  |  |  |  | 14.8 unitless | 2.6 unitless | 11.6 unitless | 87.8 unitless | 168 unitless | 43.9 unitless | 53.8 unitless
10 | B10 | 8 unitless | 6 unitless | 3440 unitless | 2040 unitless |  |  |  |  |  |  | 
11 | B11 | 16 unitless | 6 unitless | 212 unitless | 404 unitless |  |  |  |  |  |  | 
12 | B12 | 65 unitless | 6 unitless | 45 unitless | 590 unitless |  |  |  |  |  |  | 
13 | B13 | 17 unitless | 8 unitless | 3350 unitless | 2300 unitless |  |  |  |  |  |  | 
14 | B14 | 31 unitless | 4 unitless | 39 unitless | 1000 unitless |  |  |  |  |  |  | 
15 | B15 | 32 unitless | 7 unitless | 3680 unitless | 700 unitless |  |  |  |  |  |  | 
